Assay results as given in US20240034813A1 (Janssen / Centocor, published 2024).

Tests used:
[1] = molecular target: T1, recombinant human EGFR/ErbB1/HER1 with C-terminal His tag, Cy5-labeled (human, UniProt P00533 25-645, Cy5 label (reacted with Cy5 Mono NHS Ester; sites not stated)); test: competitive TR-FRET (Eu-amivantamab/Cy5-EGFR), EC50 ratio vs Reference Material; Ex. 2 Formulation 1 (10 mM histidine), T0, 25 C table
T1 construct: Commercial protein; also called Cy5-EGFR; Cy5-labeled EGFR antigen; not shown: C-terminal His tag
Source text: (§1) In this procedure, varying concentrations of unlabeled bispecific EGFR-cMet antibody sample compete with donor fluorophore (Europium (Eu) chelate) labeled bispecific EGFR-cMet antibody for binding to an acceptor fluorophore (Cy5)-labeled EGFR antigen. Excitation of the donor fluorophore results in a transfer of energy to the bound acceptor fluorophore (FRET process). The resultant FRET is detected by emission of light at 665 nm using a microplate reader capable of measuring time-resolved fluorescence. Sample dose response curves are compared to the RM.
(§2) EGFR Binding Materials and Methods. Certified commercial EGFR, a recombinant human EGFR/ErbB1/HER1 with C-terminal His tag is reacted with certified commercial Cy5 Mono NHS Ester to produce Cy5-labeled EGFR. Validated bispecific EGFR-cMet antibody is reacted with certified commercial Europium (Eu) chelate to produce Eu-labeled bispecific EGFR-cMet antibody. […] Fluorescence is then measured by spectrophotometry at 665 nm, plotted against antibody concentration and analyzed by a four-parameter logistic model. The antibody concentration required to obtain half of the maximum fluorescence response (EC50) is determined for RM, assay control and samples. The potencies of assay control and samples are calculated based on the ratio of the sample (or control) and RM EC50 values and reported as a percentage activity relative to the RM.

[2] = molecular target: T1, recombinant human EGFR/ErbB1/HER1 with …; test: competitive TR-FRET (Eu-amivantamab/Cy5-EGFR), EC50 ratio vs Reference Material; Ex. 2 Formulation 3 (acetate), 1 month at 40 C
Source text: as §1, §2

[3] = molecular target: T2, recombinant cMet/HGFR with c-terminal His-tag, Cy5-labeled (UniProt P08581 25-932, limits assumed, Cy5 label (reacted with Cy5 Mono NHS Ester; sites not stated)); test: competitive TR-FRET (Eu-amivantamab/Cy5-c-MET), EC50 ratio vs Reference Material; Ex. 2 Formulation 3 (acetate), T0, 25 C table
T2 construct: Commercial protein; also called Cy5-c-MET; Cy5-labeled c-MET antigen; not shown: C-terminal His-tag
Source text: as §1, with “(Cy5)-labeled c-MET” for “(Cy5)-labeled EGFR”, “the Reference Material (RM).” for “the RM.”
as §2, with “c-MET Binding” for “EGFR Binding”, “commercial cMet,” for “commercial EGFR,”, “recombinant cMet/HGFR” for “recombinant human EGFR/ErbB1/HER1”, “with c-terminal His-tag” for “with C-terminal His tag”, “Cy5-labeled c-MET.” for “Cy5-labeled EGFR.”, “produce Eu labeled” for “produce Eu-labeled”

[4] = molecular target: T1, recombinant human EGFR/ErbB1/HER1 with …; test: competitive TR-FRET (Eu-amivantamab/Cy5-EGFR), EC50 ratio vs Reference Material; Ex. 2 Formulation 2 (50 mM histidine), T0, 5 C table
Source text: as §1, §2

[5] = molecular target: T1, recombinant human EGFR/ErbB1/HER1 with …; test: competitive TR-FRET (Eu-amivantamab/Cy5-EGFR), EC50 ratio vs Reference Material; Ex. 12 drug product with rHuPH20, 9 months at 5 C
Source text: as §1, §2

[6] = molecular target: T2, recombinant cMet/HGFR with c-terminal …; test: competitive TR-FRET (Eu-amivantamab/Cy5-c-MET), EC50 ratio vs Reference Material; Ex. 12 drug product with rHuPH20, 5 months at 5 C
Source text: as §1, with “(Cy5)-labeled c-MET” for “(Cy5)-labeled EGFR”, “the Reference Material (RM).” for “the RM.”
as §2, with “c-MET Binding” for “EGFR Binding”, “commercial cMet,” for “commercial EGFR,”, “recombinant cMet/HGFR” for “recombinant human EGFR/ErbB1/HER1”, “with c-terminal His-tag” for “with C-terminal His tag”, “Cy5-labeled c-MET.” for “Cy5-labeled EGFR.”, “produce Eu labeled” for “produce Eu-labeled”

[7] = molecular target: T1, recombinant human EGFR/ErbB1/HER1 with …; test: competitive TR-FRET (Eu-amivantamab/Cy5-EGFR), EC50 ratio vs Reference Material; Ex. 2 Formulation 2 (50 mM histidine), T0, 40 C table
Source text: as §1, §2

[8] = molecular target: T2, recombinant cMet/HGFR with c-terminal …; test: competitive TR-FRET (Eu-amivantamab/Cy5-c-MET), EC50 ratio vs Reference Material; Ex. 2 Formulation 2 (50 mM histidine), T0, 5 C table
Source text: as §1, with “(Cy5)-labeled c-MET” for “(Cy5)-labeled EGFR”, “the Reference Material (RM).” for “the RM.”
as §2, with “c-MET Binding” for “EGFR Binding”, “commercial cMet,” for “commercial EGFR,”, “recombinant cMet/HGFR” for “recombinant human EGFR/ErbB1/HER1”, “with c-terminal His-tag” for “with C-terminal His tag”, “Cy5-labeled c-MET.” for “Cy5-labeled EGFR.”, “produce Eu labeled” for “produce Eu-labeled”

B1: amivantamab (bispecific antibody, human IgG1, kappa)
heavy 1: not shown
light 1: not shown
heavy 2: not shown
light 2: DIQMTQSPSSVSASVGDRVTITCRASQGISNWLAWFQHKPGKAPKLLIYAASSLLSGVPSRFSGSGSGTDFTLTISSLQPEDFATYYCQQANSFPITFGQGTRLEIKRTVAAPSVFIFPPSDEQLKSGTASVVCLLNNFYPREAKVQWKVDNALQSGNSQESVTEQDSKDSTYSLSSTLTLSKADYEKHKVYACEVTHQGLSSPVTKSFNRGEC
notes: The samples tested were high concentration (160 mg/mL) formulations, fresh or stored or stressed; also called JNJ-61186372; bispecific EGFR-cMet antibody
EGFR Binding % activity relative to RM [1]: 103%
EGFR Binding % activity relative to RM [2]: 76%
cMET Binding % activity relative to RM [3]: 94%
EGFR Binding % activity relative to RM [4]: 103%
EGFR Binding activity relative to Reference Material (%) [5]: 87%
cMET Binding activity relative to Reference Material (%) [6]: 100%
EGFR Binding % activity relative to RM [7]: 103%
cMET Binding % activity relative to RM [8]: 102%
